Data published in US20040170960A1.

Biological target: murine GM-CSF receptor (murine) (UniProt Q00941)
Assay: cell-based or functional assay

Chain of UniProt Q00941 (Q00941 30-388, chain 1 of 2): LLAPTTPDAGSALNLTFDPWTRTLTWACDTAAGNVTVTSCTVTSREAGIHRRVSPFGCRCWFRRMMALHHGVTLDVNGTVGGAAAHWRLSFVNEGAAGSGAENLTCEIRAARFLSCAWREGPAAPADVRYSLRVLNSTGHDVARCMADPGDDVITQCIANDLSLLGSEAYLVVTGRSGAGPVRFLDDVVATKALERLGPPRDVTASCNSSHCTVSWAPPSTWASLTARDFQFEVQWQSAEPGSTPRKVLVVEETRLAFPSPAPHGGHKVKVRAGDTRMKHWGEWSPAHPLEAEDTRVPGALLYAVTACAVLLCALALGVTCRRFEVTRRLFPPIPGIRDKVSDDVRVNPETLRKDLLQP
Chain of UniProt Q00941 (P26955 23-896, chain 2 of 2, further chain): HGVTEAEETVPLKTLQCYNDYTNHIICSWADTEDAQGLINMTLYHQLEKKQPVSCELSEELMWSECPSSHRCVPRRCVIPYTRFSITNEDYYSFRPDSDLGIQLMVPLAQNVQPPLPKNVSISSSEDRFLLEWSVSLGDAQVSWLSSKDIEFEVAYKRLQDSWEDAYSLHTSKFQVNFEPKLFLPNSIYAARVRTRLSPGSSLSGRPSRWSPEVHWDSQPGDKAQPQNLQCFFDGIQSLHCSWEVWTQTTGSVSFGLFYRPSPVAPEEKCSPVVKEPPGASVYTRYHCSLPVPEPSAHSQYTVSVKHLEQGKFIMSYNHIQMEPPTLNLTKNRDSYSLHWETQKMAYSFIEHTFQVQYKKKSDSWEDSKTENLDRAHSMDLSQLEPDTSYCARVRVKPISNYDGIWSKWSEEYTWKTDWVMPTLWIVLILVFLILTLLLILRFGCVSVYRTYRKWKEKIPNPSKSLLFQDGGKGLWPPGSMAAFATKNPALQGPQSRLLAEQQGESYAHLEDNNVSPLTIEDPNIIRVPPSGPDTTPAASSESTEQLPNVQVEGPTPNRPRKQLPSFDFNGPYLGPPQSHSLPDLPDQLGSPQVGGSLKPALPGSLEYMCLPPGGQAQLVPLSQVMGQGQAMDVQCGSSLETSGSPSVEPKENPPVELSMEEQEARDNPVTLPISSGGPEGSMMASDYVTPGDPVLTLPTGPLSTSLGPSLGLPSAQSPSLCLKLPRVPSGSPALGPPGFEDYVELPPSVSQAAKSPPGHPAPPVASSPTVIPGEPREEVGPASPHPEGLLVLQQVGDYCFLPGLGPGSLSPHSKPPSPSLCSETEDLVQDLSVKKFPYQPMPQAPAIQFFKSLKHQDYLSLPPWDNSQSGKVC

- proliferation of FDC-P1 cells (Biotrak BrdU cell proliferation ELISA): 25%
Substance: murine GM-CSF fused to the S. cerevesiae Gas1 GPI modification signal sequence (from UniProt P01587 18-141; P22146 474-559) (other; the values are: proliferation increase vs soluble GM-CSF)
